Among the data in patent US20220090209 are binding signal (fold reduction vs unmethylated) and binding signal values, retold here.

Data set [1] deals with HIF1β (ARNT), endogenous (Mus musculus) (UniProt P53762). To be noted: 5mC at CpG (M.SssI); ChIP-qPCR in isogenic mouse ES cells. (In qPCR the cycle at which signal appears reflects the starting amount.)
A further data set concerns the target HIF1α-HIF1β heterodimer (UniProt Q61221+P53762). As to the kind of experiment: MST. The note with it: 5mC at CpG of RCGTG; 20 mM phosphate, 75 mM NaCl, 5 mM DTT, 0.05% Tween-20, pH 7.4, 25 C; scale: fold lower affinity.
A further data set addresses HIF2α-HIF1β heterodimer (UniProt P97481+P53762). As to the kind of experiment: MST. The note with it: 5mC at CpG of RCGTG; 20 mM phosphate, 75 mM NaCl, 5 mM DTT, 0.05% Tween-20, pH 7.4, 25 C; scale: fold lower affinity.

As to “in vitro methylated human HIF binding region chr16:30,065,212-30,065,711”, the binding signal (fold reduction vs unmethylated) in data set [1] was determined as 12.4. For methylated RCGTG ds oligonucleotide, the binding signal in the data set with HIF1α-HIF1β heterodimer and with HIF2α-HIF1β heterodimer was 15 throughout.
